Among the data in US20100260668A1 (published 2010) are EC50 values, retold here.

Several values for one entry are separate records, joined by “and”; a condition that tells them apart may be missing. Equal values may be shown once.

The target in experiment [1] is T1, DLL4 (DLL4 ECD/His tag, R&D Systems 1506-D4-050) (UniProt Q9NR61 27-529).
T1 construct: extracellular domain; not shown: His tag
The experiment is described as follows: Direct bind ELISA on DLL4; DLL4 domain N-term., HC short, LC short. A general note: An ELISA detects its analyte on a solid surface through an enzyme-linked reagent.

Experiment [2] addresses T2, DLL4 ECD/His tag (R&D 1506-D4-050) (UniProt Q9NR61 27-529).
T2 construct: extracellular domain; Bought antigen coated on the ELISA plate; not shown: His tag
In words: direct bind ELISA, DLL4 on plate; DLL4 VD N-term.; HC Short, LC Long.

For experiment [3], the target named is T2, DLL4 ECD/His tag (R&D 1506-D4-050). In words: direct bind ELISA, DLL4 on plate; DLL4 VD N-term.; HC Long, LC Short.
Experiment [4] deals with T1, DLL4 (DLL4 ECD/His tag, R&D Systems …). The experiment is described as follows: Direct bind ELISA on DLL4; reference antibody.

B1: DVD443 (DLL4/VEGF DVD-Ig) (bispecific antibody, human IgG1)
VH: QVQLVQSGAEVKKPGASVKISCKASGYSFTAYYIHWVKQAPGQGLEWIGYISSYNGATNYNQKFKGRVTFTTDTSTSTAYMELRSLRSDDTAVYYCARDYDYDVGMDYWGQGTLVTVSSASTKGPEVQLVESGGGLVQPGGSLRLSCAASGFTISDYWIHWVRQAPGKGLEWVAGITPAGGYTYYADSVKGRFTISADTSKNTAYLQMNSLRAEDTAVYYCARFVFFLPYAMDYWGQGTLVTVSS
VL: DIVMTQSPDSLAVSLGERATISCRASESVDNYGISFMKWFQQKPGQPPKLLIYAASNQGSGVPDRFSGSGSGTDFTLTISSLQAEDVAVYYCQQSKEVPWTFGGGTKVEIKRTVAAPDIQMTQSPSSLSASVGDRVTITCRASQDVSTAVAWYQQKPGKAPKLLIYSASFLYSGVPSRFSGSGSGTDFTLTISSLQPEDFATYYCQQSYTTPPTFGQGTKVEIKR
notes: HC linker short, LC linker short; also called DVD443H; DVD443L
For the molecule B1, the EC50 (commonly the concentration that produces a half-maximal response) in experiment [1] came out at 0.2 nM.

B2: DVD533 (bispecific antibody, human IgG1, kappa, lambda, L234A L235A)
heavy: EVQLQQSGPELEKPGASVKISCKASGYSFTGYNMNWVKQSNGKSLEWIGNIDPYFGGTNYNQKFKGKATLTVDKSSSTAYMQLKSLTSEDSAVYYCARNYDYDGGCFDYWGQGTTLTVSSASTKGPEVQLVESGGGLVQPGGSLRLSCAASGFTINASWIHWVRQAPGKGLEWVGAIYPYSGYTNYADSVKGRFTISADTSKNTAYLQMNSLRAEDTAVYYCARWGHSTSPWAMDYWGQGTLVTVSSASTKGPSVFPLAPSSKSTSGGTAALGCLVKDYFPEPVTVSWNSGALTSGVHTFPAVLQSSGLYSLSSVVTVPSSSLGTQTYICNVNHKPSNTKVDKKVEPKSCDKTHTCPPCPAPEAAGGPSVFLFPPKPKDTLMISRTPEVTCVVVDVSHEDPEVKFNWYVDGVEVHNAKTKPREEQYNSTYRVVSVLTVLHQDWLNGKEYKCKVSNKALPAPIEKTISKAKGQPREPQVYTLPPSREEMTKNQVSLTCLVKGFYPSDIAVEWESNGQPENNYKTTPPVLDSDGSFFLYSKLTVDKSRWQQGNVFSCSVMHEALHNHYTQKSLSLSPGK
light: QAVVTQESALTTSPGETVTLTCRSSTGAVTTSNYANWVQEKPDHLFTGLIGGTNNRAPGVPARFSGSLIGDKAALTITGAQTEDEAIYFCALWYSNHWVFGGGTKLTVLGQPKAAPSVTLFPPDIQMTQSPSSLSASVGDRVTITCRASQVIRRSLAWYQQKPGKAPKLLIYAASNLASGVPSRFSGSGSGTDFTLTISSLQPEDFATYYCQQSNTSPLTFGQGTKVEIKRTVAAPSVFIFPPSDEQLKSGTASVVCLLNNFYPREAKVQWKVDNALQSGNSQESVTEQDSKDSTYSLSSTLTLSKADYEKHKVYACEVTHQGLSSPVTKSFNRGEC
notes: DVD-Ig; outer AB073 (DLL4), inner AB071 (VEGF); HC short, LC long linker; also called DVD533H; DVD533L
With B2, the EC50 in experiment [2] amounted to 0.25 nM.

B3: DVD503 (bispecific antibody, human IgG1, kappa)
heavy: not shown
light: DIQMTQSSSYLSVSLGGRVTITCKASDHINNWLAWYQQKPGNAPRLLISGATSLETGVPSRFSGSGSGKDYTLSITSLQTEDVATYYCQQYWSIPLTFGAGTKLELKRTVAAPDIQMTQSPSSLSASVGDRVTITCRASQVIRRSLAWYQQKPGKAPKLLIYAASNLASGVPSRFSGSGSGTDFTLTISSLQPEDFATYYCQQSNTSPLTFGQGTKVEIKRTVAAPSVFIFPPSDEQLKSGTASVVCLLNNFYPREAKVQWKVDNALQSGNSQESVTEQDSKDSTYSLSSTLTLSKADYEKHKVYACEVTHQGLSSPVTKSFNRGEC
notes: DVD-Ig; outer AB072 (DLL4), inner AB071 (VEGF); HC long, LC short linker; also called DVD503H; DVD503L
On to B3, for which the half-maximal effective concentration (EC50) in experiment [3] came out at 0.33 nM.

B4: AB069 (anti-DLL4 (seq. 2) parent antibody) (antibody, human IgG1, V domains shown)
VH: QVQLVQSGAEVKKPGASVKISCKASGYSFTAYYIHWVKQAPGQGLEWIGYISSYNGATNYNQKFKGRVTFTTDTSTSTAYMELRSLRSDDTAVYYCARDYDYDVGMDYWGQGTLVTVSS
VL: DIVMTQSPDSLAVSLGERATISCRASESVDNYGISFMKWFQQKPGQPPKLLIYAASNQGSGVPDRFSGSGSGTDFTLTISSLQAEDVAVYYCQQSKEVPWTFGGGTKVEIKR
notes: also called AB069VH; AB069VL
Turning to B4, the concentration giving a half-maximal response (EC50) in experiment [4] is 0.23 nM and 0.24 nM.

B5: DVD509 (bispecific antibody, human IgG1, kappa)
heavy: not shown
light: DIQMTQSSSYLSVSLGGRVTITCKASDHINNWLAWYQQKPGNAPRLLISGATSLETGVPSRFSGSGSGKDYTLSITSLQTEDVATYYCQQYWSIPLTFGAGTKLELKRTVAAPSVFIFPPDIQMTQSPSSLSASVGDRVTITCRASQVIRRSLAWYQQKPGKAPKLLIYAASNLASGVPSRFSGSGSGTDFTLTISSLQPEDFATYYCQQSNTSPLTFGQGTKVEIKRTVAAPSVFIFPPSDEQLKSGTASVVCLLNNFYPREAKVQWKVDNALQSGNSQESVTEQDSKDSTYSLSSTLTLSKADYEKHKVYACEVTHQGLSSPVTKSFNRGEC
notes: DVD-Ig; outer AB072 (DLL4), inner AB071 (VEGF); HC short, LC long linker; also called DVD509H; DVD509L
The molecule B5 had an EC50 in experiment [2] of 0.21 nM.

B6: AB015 (anti-DLL-4 (seq. 1) parent antibody) (antibody, human IgG1, V domains shown)
VH: EVQLVESGGGLVQPGGSLRLSCAASGFTFTDNWISWVRQAPGKGLEWVGYISPNSGFTYYADSVKGRFTISADTSKNTAYLQMNSLRAEDTAVYYCARDNFGGYFDYWGQGTLVTVSS
VL: DIQMTQSPSSLSASVGDRVTITCRASQDVSTAVAWYQQKPGKAPKLLIYSASFLYSGVPSRFSGSGSGTDFTLTISSLQPEDFATTYYCQQSYTGTVTFGQGTKVEIKR
notes: also called AB015VH; AB015VL
In the case of B6, in experiment [4], the half-maximal effective concentration (EC50) is 0.6 nM and 0.58 nM.

B7: DVD489 (DLL4/VEGF DVD-Ig) (bispecific antibody, human IgG1)
VH: EVQLQQSGPELVKPGASVKMSCKASGYTFTSYVINWVKQKPGQGLEWIGLINPYNDGTKYNEKFKVKATLTSDKSSSTAYMELSSLTSEDSAVYYCASYYYGSRYYFDYWGQGTTLTVSSASTKGPEVQLVESGGGLVQPGGSLRLSCAASGFTISDYWIHWVRQAPGKGLEWVAGITPAGGYTYYADSVKGRFTISADTSKNTAYLQMNSLRAEDTAVYYCARFVFFLPYAMDYWGQGTLVTVSS
VL: DIQMTQSSSYLSVSLGGRVTITCKASDHINNWLAWYQQKPGNAPRLLISGATSLETGVPSRFSGSGSGKDYTLSITSLQTEDVATYYCQQYWSIPLTFGAGTKLELKRTVAAPDIQMTQSPSSLSASVGDRVTITCRASQDVSTAVAWYQQKPGKAPKLLIYSASFLYSGVPSRFSGSGSGTDFTLTISSLQPEDFATYYCQQSYTTPPTFGQGTKVEIKR
notes: HC linker short, LC linker short; also called DVD489H; DVD489L
For B7, it took 0.62 nM to reach a half-maximal effect in experiment [1] (EC50).

B8: DVD513 (DLL4/VEGF DVD-Ig) (bispecific antibody, human IgG1)
VH: EVQLQQSGPELEKPGASVKISCKASGYSFTGYNMNWVKQSNGKSLEWIGNIDPYFGGTNYNQKFKGKATLTVDKSSSTAYMQLKSLTSEDSAVYYCARNYDYDGGCFDYWGQGTTLTVSSASTKGPEVQLVESGGGLVQPGGSLRLSCAASGFTISDYWIHWVRQAPGKGLEWVAGITPAGGYTYYADSVKGRFTISADTSKNTAYLQMNSLRAEDTAVYYCARFVFFLPYAMDYWGQGTLVTVSS
VL: QAVVTQESALTTSPGETVTLTCRSSTGAVTTSNYANWVQEKPDHLFTGLIGGTNNRAPGVPARFSGSLIGDKAALTITGAQTEDEAIYFCALWYSNHWVFGGGTKLTVLGQPKAAPDIQMTQSPSSLSASVGDRVTITCRASQDVSTAVAWYQQKPGKAPKLLIYSASFLYSGVPSRFSGSGSGTDFTLTISSLQPEDFATYYCQQSYTTPPTFGQGTKVEIKR
notes: HC linker short, LC linker short; also called DVD513H; DVD513L
With B8, a half-maximal effect in experiment [1] (EC50) was put at 0.66 nM.

B9: DVD465 (DLL4/VEGF DVD-Ig) (bispecific antibody, human IgG1)
VH: EVQLVESGGGLVQPGGSLRLSCAASGFTFTDNWISWVRQAPGKGLEWVGYISPNSGFTYYADSVKGRFTISADTSKNTAYLQMNSLRAEDTAVYYCARDNFGGYFDYWGQGTLVTVSSASTKGPEVQLVESGGGLVQPGGSLRLSCAASGFTISDYWIHWVRQAPGKGLEWVAGITPAGGYTYYADSVKGRFTISADTSKNTAYLQMNSLRAEDTAVYYCARFVFFLPYAMDYWGQGTLVTVSS
VL: DIQMTQSPSSLSASVGDRVTITCRASQDVSTAVAWYQQKPGKAPKLLIYSASFLYSGVPSRFSGSGSGTDFTLTISSLQPEDFATTYYCQQSYTGTVTFGQGTKVEIKRTVAAPDIQMTQSPSSLSASVGDRVTITCRASQDVSTAVAWYQQKPGKAPKLLIYSASFLYSGVPSRFSGSGSGTDFTLTISSLQPEDFATYYCQQSYTTPPTFGQGTKVEIKR
notes: HC linker short, LC linker short; also called DVD465H; DVD465L
On to B9, for which the EC50 in experiment [1] was found to be 0.57 nM.

B10: DVD463 (bispecific antibody, human IgG1, kappa)
heavy: not shown
light: DIVMTQSPDSLAVSLGERATISCRASESVDNYGISFMKWFQQKPGQPPKLLIYAASNQGSGVPDRFSGSGSGTDFTLTISSLQAEDVAVYYCQQSKEVPWTFGGGTKVEIKRTVAAPSVFIFPPDIQMTQSPSSLSASVGDRVTITCRASQVIRRSLAWYQQKPGKAPKLLIYAASNLASGVPSRFSGSGSGTDFTLTISSLQPEDFATYYCQQSNTSPLTFGQGTKVEIKRTVAAPSVFIFPPSDEQLKSGTASVVCLLNNFYPREAKVQWKVDNALQSGNSQESVTEQDSKDSTYSLSSTLTLSKADYEKHKVYACEVTHQGLSSPVTKSFNRGEC
notes: DVD-Ig; outer AB069 (DLL4), inner AB071 (VEGF); HC short, LC long linker; also called DVD463H; DVD463L
B10 displayed a concentration giving a half-maximal response (EC50) in experiment [2] of 0.5 nM.

B11: DVD485 (bispecific antibody, human IgG1, kappa)
heavy: not shown
light: DIQMTQSPSSLSASVGDRVTITCRASQDVSTAVAWYQQKPGKAPKLLIYSASFLYSGVPSRFSGSGSGTDFTLTISSLQPEDFATTYYCQQSYTGTVTFGQGTKVEIKRTVAAPSVFIFPPDIQMTQSPSSLSASVGDRVTITCRASQVIRRSLAWYQQKPGKAPKLLIYAASNLASGVPSRFSGSGSGTDFTLTISSLQPEDFATYYCQQSNTSPLTFGQGTKVEIKRTVAAPSVFIFPPSDEQLKSGTASVVCLLNNFYPREAKVQWKVDNALQSGNSQESVTEQDSKDSTYSLSSTLTLSKADYEKHKVYACEVTHQGLSSPVTKSFNRGEC
notes: DVD-Ig; outer AB015 (DLL4), inner AB071 (VEGF); HC short, LC long linker; also called DVD485H; DVD485L
B11 had a half-maximal effective concentration (EC50) in experiment [2] of 1.41 nM.
